# Reference: patent US9708383 (Novo Nordisk, dated 2017)
# *1 amine or outer side, *2 acyl side, *3 side chain or, on linkers, in order; H or OH if unused. Where no end group is shown, it is not given here. Side-chain parts run from the residue outwards. [ ]: non-standard residue; d: D form. The star is where a group is joined. 9‑(4-carboxyphenoxy)nonanoyl = O=C(O)c1ccc(OCCCCCCCCC(=O)*)cc1; Decanoyl(10-(4-HOOC-PhO)) = O=C(O)c1ccc(OCCCCCCCCCC(=O)*)cc1; γGlu = O=C(O)[C@H](CCC(=O)[*:2])N[*:1]; Desaminohistidyl = O=C(CCc1c[nH]cn1)*; Hexanoyl(6-Ph) = O=C(CCCCCc1ccccc1)*; C12 diacid = O=C(O)CCCCCCCCCCC(=O)*; 13‑carboxytridecanoyl = C14 diacid; Butanoyl(4-Ph) = O=C(CCCc1ccccc1)*; 12Ado = NCCCCCCCCCCCC(=O)O; AEEA = NCCOCCOCC(=O)O; Aib = CC(C)(N)C(=O)O; Aoc = NCCCCCCCC(=O)O
# B1: GLP-1 derivative of Example 136: [Imp7,Lys18,Glu22,Gln34]-GLP-1-(7-37)-peptide (peptide)
# peptide: [Desaminohistidyl]AEGTFTSDVSK([AEEA-AEEA-γGlu-Decanoyl(10-(4-HOOC-PhO))])YLEEQAAK([AEEA-AEEA-γGlu-Decanoyl(10-(4-HOOC-PhO))])EFIAWLVQGRG
# B2: GLP-1 derivative of Example 4: [Imp7,Lys18,Glu22,Arg26,Arg34,Lys37]-GLP-1-(7-37)-peptide (peptide)
# peptide: [Desaminohistidyl]AEGTFTSDVSK([AEEA-AEEA-γGlu-Decanoyl(10-(4-HOOC-PhO))])YLEEQAAREFIAWLVRGRK([AEEA-AEEA-γGlu-Decanoyl(10-(4-HOOC-PhO))])
# B3: GLP-1 derivative of Example 132: [Aib8,Lys8,Glu22,Gln34]-GLP-1-(7-37)-peptide amide (peptide)
# peptide: H[Aib]EGTFTSDVSK([AEEA-AEEA-γGlu-Decanoyl(10-(4-HOOC-PhO))])YLEEQAAK([AEEA-AEEA-γGlu-Decanoyl(10-(4-HOOC-PhO))])EFIAWLVQGRG-NH2
# modifications: N-terminus assumed
# SMILES: CC[C@H](C)[C@H](NC(=O)[C@H](Cc1ccccc1)NC(=O)[C@H](CCC(=O)O)NC(=O)[C@H](CCCCNC(=O)COCCOCCNC(=O)COCCOCCNC(=O)CC[C@H](NC(=O)CCCCCCCCCOc1ccc(C(=O)O)cc1)C(=O)O)NC(=O)[C@H](C)NC(=O)[C@H](C)NC(=O)[C@H](CCC(N)=O)NC(=O)[C@H](CCC(=O)O)NC(=O)[C@H](CCC(=O)O)NC(=O)[C@H](CC(C)C)NC(=O)[C@H](Cc1ccc(O)cc1)NC(=O)[C@H](CCCCNC(=O)COCCOCCNC(=O)COCCOCCNC(=O)CC[C@H](NC(=O)CCCCCCCCCOc1ccc(C(=O)O)cc1)C(=O)O)NC(=O)[C@H](CO)NC(=O)[C@@H](NC(=O)[C@H](CC(=O)O)NC(=O)[C@H](CO)NC(=O)[C@@H](NC(=O)[C@H](Cc1ccccc1)NC(=O)[C@@H](NC(=O)CNC(=O)[C@H](CCC(=O)O)NC(=O)C(C)(C)NC(=O)[C@@H](N)Cc1c[nH]cn1)[C@@H](C)O)[C@@H](C)O)C(C)C)C(=O)N[C@@H](C)C(=O)N[C@@H](Cc1c[nH]c2ccccc12)C(=O)N[C@@H](CC(C)C)C(=O)N[C@H](C(=O)N[C@@H](CCC(N)=O)C(=O)NCC(=O)N[C@@H](CCCNC(=N)N)C(=O)NCC(N)=O)C(C)C
# notes: Name prints Lys8, evidently Lys18
# B4: GLP-1 derivative of Example 123: [Aib8,Lys18,Glu22,Gln34]-GLP-1-(7-37)-peptide (peptide)
# peptide: H[Aib]EGTFTSDVSK([AEEA-AEEA-γGlu-Hexanoyl(6-Ph)])YLEEQAAK([AEEA-AEEA-γGlu-Hexanoyl(6-Ph)])EFIAWLVQGRG
# B5: GLP-1 derivative of Example 10: [Lys18,Glu22,Val25,Arg26,Lys31,Gly34]-GLP-1-(7-34)-peptide (peptide)
# peptide: HAEGTFTSDVSK([AEEA-AEEA-γGlu-13‑carboxytridecanoyl])YLEEQAVREFIAK([AEEA-AEEA-γGlu-13‑carboxytridecanoyl])LVG
# B6: GLP-1 derivative of Example 15: [Lys8,Glu22,Arg26,Lys31,Gly34]-GLP-1-(7-34)-peptide (peptide)
# peptide: HAEGTFTSDVSK([AEEA-AEEA-γGlu-13‑carboxytridecanoyl])YLEEQAAREFIAK([AEEA-AEEA-γGlu-13‑carboxytridecanoyl])LVG
# notes: Name prints Lys8, evidently Lys18 (acylation at Nε18)
# B7: GLP-1 derivative of Example 52: [Lys18,Glu22,Val25,Arg26,Lys30,His31,Gly34]-GLP-1-(7-34)-peptide (peptide)
# peptide: HAEGTFTSDVSK([AEEA-AEEA-γGlu-13‑carboxytridecanoyl])YLEEQAVREFIK([AEEA-AEEA-γGlu-13‑carboxytridecanoyl])HLVG
# B8: GLP-1 derivative of Example 28: [Lys18,Glu22,Arg26,Lys27,His31,Gly34]-GLP-1-(7-34)-peptide (peptide)
# peptide: HAEGTFTSDVSK([AEEA-AEEA-13‑carboxytridecanoyl])YLEEQAARK([AEEA-AEEA-13‑carboxytridecanoyl])FIAHLVG
# B9: GLP-1 derivative of Example 29: [Lys18,Glu22,Arg26,Lys27,His31,Gly34]-GLP-1-(7-34)-peptide (peptide)
# peptide: HAEGTFTSDVSK([γGlu-AEEA-AEEA-13‑carboxytridecanoyl])YLEEQAARK([γGlu-AEEA-AEEA-13‑carboxytridecanoyl])FIAHLVG
# B10: GLP-1 derivative of Example 14: [Ser8,Lys18,Glu22,Val25,Arg26,Lys31,Gly34]-GLP-1-(7-34)-peptide (peptide)
# peptide: HSEGTFTSDVSK([AEEA-AEEA-γGlu-13‑carboxytridecanoyl])YLEEQAVREFIAK([AEEA-AEEA-γGlu-13‑carboxytridecanoyl])LVG
# B11: GLP-1 derivative of Example 66: [Lys18,Glu22,Val25,Arg26,His31]-GLP-1-(7-34)-peptide (peptide)
# peptide: HAEGTFTSDVSK([AEEA-AEEA-γGlu-C12 diacid])YLEEQAVREFIAHLVK([AEEA-AEEA-γGlu-C12 diacid])
# B12: GLP-1 derivative of Example 53: [Lys18,Glu22,Val25,Arg26,Leu27,Lys30,Gly34]-GLP-1-(7-34)-peptide (peptide)
# peptide: HAEGTFTSDVSK([AEEA-AEEA-γGlu-13‑carboxytridecanoyl])YLEEQAVRLFIK([AEEA-AEEA-γGlu-13‑carboxytridecanoyl])WLVG
# B13: GLP-1 derivative of Example 30: [Lys18,Glu22,Arg26,Lys27,His31,Gly34]-GLP-1-(7-34)-peptide (peptide)
# peptide: HAEGTFTSDVSK([AEEA-AEEA-γGlu-Decanoyl(10-(4-HOOC-PhO))])YLEEQAARK([AEEA-AEEA-γGlu-Decanoyl(10-(4-HOOC-PhO))])FIAHLVG
# B14: GLP-1 derivative of Example 50: [Lys18,Glu22,Val25,Arg26,Lys30,Gly34]-GLP-1-(7-34)-peptide (peptide)
# peptide: HAEGTFTSDVSK([AEEA-AEEA-γGlu-13‑carboxytridecanoyl])YLEEQAVREFIK([AEEA-AEEA-γGlu-13‑carboxytridecanoyl])WLVG
# B15: GLP-1 derivative of Example 25: [Ser8,Lys18,Glu22,Val25,Arg26,Lys31,Gly34]-GLP-1-(7-34)-peptide (peptide)
# peptide: HSEGTFTSDVSK([AEEA-AEEA-γGlu-C12 diacid])YLEEQAVREFIAK([AEEA-AEEA-γGlu-C12 diacid])LVG
# B16: GLP-1 derivative of Example 64: [Lys18,Glu22,Arg26,Lys27,His31,Gly34]-GLP-1-(7-34)-peptide (peptide)
# peptide: HAEGTFTSDVSK([AEEA-AEEA-γGlu-9‑(4-carboxyphenoxy)nonanoyl])YLEEQAARK([AEEA-AEEA-γGlu-9‑(4-carboxyphenoxy)nonanoyl])FIAHLVG
# B17: GLP-1 derivative of Example 59: [Lys18,Glu22,Arg26,Lys27,His31,Gly34]-GLP-1-(7-34)-peptide (peptide)
# peptide: HAEGTFTSDVSK([γGlu-AEEA-γGlu-13‑carboxytridecanoyl])YLEEQAARK([γGlu-AEEA-γGlu-13‑carboxytridecanoyl])FIAHLVG
# B18: GLP-1 derivative of Example 49: [Lys18,Glu22,Arg26,Lys27,His31,Gly34]-GLP-1-(7-34)-peptide (peptide)
# peptide: HAEGTFTSDVSK([γGlu-AEEA-AEEA-Decanoyl(10-(4-HOOC-PhO))])YLEEQAARK([γGlu-AEEA-AEEA-Decanoyl(10-(4-HOOC-PhO))])FIAHLVG
# B19: GLP-1 derivative of Example 127: [Aib8,Lys18,Glu22,Gln34]-GLP-1-(7-37)-peptide (peptide)
# peptide: H[Aib]EGTFTSDVSK([AEEA-AEEA-γGlu-Aoc-γGlu-Hexanoyl(6-Ph)])YLEEQAAK([AEEA-AEEA-γGlu-Aoc-γGlu-Hexanoyl(6-Ph)])EFIAWLVQGRG
# B20: GLP-1 derivative of Example 121: [Aib8,Lys18,Glu22,Gln34]-GLP-1-(7-37)-peptide (peptide)
# peptide: H[Aib]EGTFTSDVSK([AEEA-AEEA-γGlu-4‑(4-chlorophenyl)butanoyl])YLEEQAAK([AEEA-AEEA-γGlu-4‑(4-chlorophenyl)butanoyl])EFIAWLVQGRG
# B21: GLP-1 derivative of Example 109: [Aib8,Lys18,Glu22,Gln34]-GLP-1-(7-37)-peptide (peptide)
# peptide: H[Aib]EGTFTSDVSK([AEEA-AEEA-γGlu-Aoc-γGlu-Butanoyl(4-Ph)])YLEEQAAK([AEEA-AEEA-γGlu-Aoc-γGlu-Butanoyl(4-Ph)])EFIAWLVQGRG
# B22: GLP-1 derivative of Example 113: [Aib8,Lys18,Glu22,Gln34]-GLP-1-(7-37)-peptide (peptide)
# peptide: H[Aib]EGTFTSDVSK([AEEA-AEEA-γGlu-12Ado-γGlu-Butanoyl(4-Ph)])YLEEQAAK([AEEA-AEEA-γGlu-12Ado-γGlu-Butanoyl(4-Ph)])EFIAWLVQGRG
# B23: GLP-1 derivative of Example 122: [Aib8,Lys18,Glu22,Gln34]-GLP-1-(7-37)-peptide (peptide)
# peptide: H[Aib]EGTFTSDVSK([AEEA-AEEA-γGlu-4‑(4-nitrophenyl)butanoyl])YLEEQAAK([AEEA-AEEA-γGlu-4‑(4-nitrophenyl)butanoyl])EFIAWLVQGRG
# B24: GLP-1 derivative of Example 128: [Aib8,Lys18,Glu22,Gln34]-GLP-1-(7-37)-peptide (peptide)
# peptide: H[Aib]EGTFTSDVSK([AEEA-AEEA-γGlu-12Ado-γGlu-2‑phenylacetyl])YLEEQAAK([AEEA-AEEA-γGlu-12Ado-γGlu-2‑phenylacetyl])EFIAWLVQGRG
# B25: GLP-1 derivative of Example 12: [Imp7,Lys18,Glu22,Val25,Arg26,Lys31,Gly34]-GLP-1-(7-34)-peptide (peptide)
# peptide: [Desaminohistidyl]AEGTFTSDVSK([AEEA-AEEA-γGlu-13‑carboxytridecanoyl])YLEEQAVREFIAK([AEEA-AEEA-γGlu-13‑carboxytridecanoyl])LVG
# B26: GLP-1 derivative of Example 11: [Lys18,Glu22,Val25,Arg26,Lys31,Gly34]-GLP-1-(7-34)-peptide (peptide)
# peptide: HAEGTFTSDVSK([AEEA-AEEA-γGlu-C12 diacid])YLEEQAVREFIAK([AEEA-AEEA-γGlu-C12 diacid])LVG
# B27: GLP-1 derivative of Example 116: [Lys18,Glu22,Arg26,Lys31,Arg34]-GLP-1-(7-37)-peptide (peptide)
# peptide: HAEGTFTSDVSK([γGlu-AEEA-AEEA-13‑carboxytridecanoyl])YLEEQAAREFIAK([γGlu-AEEA-AEEA-13‑carboxytridecanoyl])LVRGRG
# Target: T1, human GLP-1 receptor (human, UniProt P43220 24-463)
# T1 construct: whole, on cells; Used as purified membranes of the transfected hamster cells, not whole cells; also called hGLP-1
# Experiment: SPA, 2.0% vs 0.005% HSA
row,Binder,ratio IC50 high HSA/IC50 low HSA
1,B1,> 1
2,B2,> 1
3,B3,> 1
4,B4,> 1
5,B5,> 1
6,B6,> 1
7,B7,> 1
8,B8,> 1
9,B9,> 1
10,B10,> 1
11,B11,> 1
12,B12,> 1
13,B13,> 1
14,B14,> 1
15,B15,> 1
16,B16,> 1
17,B17,> 1
18,B18,> 1
19,B19,> 1
20,B20,> 1
21,B21,> 1
22,B22,> 1
23,B23,> 1
24,B24,> 1
25,B25,> 1
26,B26,> 1
27,B27,> 1

# Target: T1, human GLP-1 receptor
# Experiment: SPA, displacement of 125I-GLP-1(7-36)NH2, 0.005% HSA
row,Binder,IC50
1,B1,< 1000 nM
2,B2,< 1000 nM
3,B3,< 1000 nM
4,B4,< 1000 nM
5,B5,< 1000 nM
6,B6,< 1000 nM
7,B7,< 1000 nM
8,B8,< 1000 nM
9,B9,< 1000 nM
10,B10,< 1000 nM
11,B11,< 1000 nM
12,B12,< 1000 nM
13,B13,< 1000 nM
14,B14,< 1000 nM
15,B15,< 1000 nM
16,B16,< 1000 nM
17,B17,< 1000 nM
18,B18,< 1000 nM
19,B19,< 1000 nM
20,B20,< 1000 nM
21,B21,< 1000 nM
22,B22,< 1000 nM
23,B23,< 1000 nM
24,B24,< 1000 nM
25,B25,< 1000 nM
26,B26,< 1000 nM
27,B27,< 1000 nM
